Laboratory results as given in the DeepSol protein solubility set.

Assay: soluble on expression in E. coli; label from the status in PepcDB or PDB records

Sequence | soluble on expression in E. coli
MSLDTNNALARFFDSSGYNANVSNPSAYQGQSANYYTGGSLFVRTPIVDAQLVSVTVPSISAGCSGIDMFMGGFSHVSSDQLVKVGKAIIHNAPPFIVNLALQTWAPQLKQNLDNLQAIADKYLNQSVNSCEAAQAAIGGLAAFAAPATKKHVCATLGTQNNAFSDWVQAQHECGAGGKAAGQLANAKNDPALKDITKTNHNVVWSAIMNNAFLSADKHLAQFMMSLSGTYVYDANGNPRYYPSLLTDNNNLVNVLLEGGKADIYQCRNTDPKACITITKPNNLSISQANGIQSQISKQLESILRHIATDQKLTDKQKSFLELTQTPVLKFFMDDLSANQTPDINSYSRMIAVELLNQYLTNMLSIASQSLANTNNSVEDIALITRDIDNAKRFTTGLADKAIETLNQRNQLIESQRKTAQRSQKDIGITTKPTQAYGNEGHHHHHH | not soluble
MGSDKIHHHHHHMKKHKIGIYEKALPKNITWQERLSLAKACGFEFIEMSIDESNDRLSRLNWTKSERIALHQSIIQSGITIPSMCLSAHRRFPFGSKDKKIRQKSFEIMEKAIDLSVNLGIRTIQLAGYDVYYEKQDEETIKYFQEGIEFAVTLAASAQVTLAVEIMDTPFMSSISRWKKWDTIINSPWFTVYPDIGNLSAWNNNIEEELTLGIDKISAIHLKDTYPVTETSKGQFRDVPFGQGCVDFVHFFSLLKKLNYRGAFLIEMWTEKNEEPLLEIIQARKWIVQQMEKAGLLC | not soluble
MDTQTLNSDLRVFMHHIYEFEKGVRSMVLATLANDDIPYAEERLRSRQIPYFAQPTPNTERTNLFFGCKECMEAIRLFVSGRSLNSLTPEEDFIIGAMLGYDICRQCERYCRRKSNS | soluble
MSLSELHALLTFPERPISQSYYVPKLQHFLKSGIPATYTLEQVAAFEHEEKNRNGDKEFRESTDDNKTSNTTPLHVLARSLPLDIKDEELQVVMDMMNILFEYGAGWNFIDYEDKTVGDLFLERNQSRESPLYRRLVEAGVSAELLLRKLNGGDVEFLDTDELIGIEPEESVQTAVDGQKEESVGSDDDATAANQQVYLKTELEYKDDALITKENKDGVMMDWETKIMELASETLFPDPEATNSATILNIGFGMGIIDTFIQARKPYRHYICEAHPDVLAKMKMDGWYEKDNVVILEGRWQDTLNNLLDKGEVFFDGIYYDTFSEHYQDILDLYDVVVGLIKPEGVFSFFNGLGADRSLCYDVYKEIVEIDVATYGMKCDYTRYSLDEQLPDWNDVKRSYFNCNYYYHPRITFAEGHHHHHH | not soluble
MGVLLREALRSMCVNNQWSYAVFWKIGCQNSSLLIWEECYNETESSSNPRRLCGLGVDTQGNEKVQLLTNRMMLNNRIILVGEGLVGRAAFTGHHQWILANSFNRDVHPPEVINEMLLQFSAGIQTVAVFPVVPHGVVQLGSSLPIMENLGFVNDVKGLILQLGCVPGALLSENYRTYEPAADFIGVPVSRIIPSQGHKILQSSAFVAETSKQHFNSTGSSDHQMVEESPCNLVDEHEGGWQSTTGFLTAGEVAVPSNPDAWLNQNFSCMSNVDAAEQQQIPCEDISSKRSLGSDDLFDMLGLDDKNKGCDNSWGVSQMRTEVLTRELSDFRIIQEMDPEFGSSGYELSGTDHLLDAVVSGACSSTKQISDETSESCKTTLTKVSNSSVTTPSHSSPQGSQLFEKKHGQPLGPSSVYGSQISSWVEQAHSLKREGSPRMVNKNETAKPANNRKRLKPGENPRPRPKDRQMIQDRVKELREIIPNGAKCSIDALLERTIKHMLFLQNVSKHSDKLKQTGESKIMKEDGGGATWAFEVGSKSMVCPIVVEDINPPRIFQVEMLCEQRGFFLEIADWIRSLGLTILKGVIETRVDKIWARFTVEASRDVTRMEIFMQLVNILEQTMKCGGNSKTILDGIKATMPLPVTGGCSM | not soluble
PLGSMPFHAEPLKPSDEIDMDLGHSVAAQKFKEIREVLEGNRYWARKVTSEEPEFMAEQVKGQAPNFLWIGCADSRVPEVTIMARKPGDVFVQRNVANQFKPEDDSSQALLNYAIMNVGVTHVMVVGHTGCGGCIAAFDQPLPTEENPGGTPLVRYLEPIIRLKHSLPEGSDVNDLIKENVKMAVKNVVNSPTIQGAWEQARKGEFREVFVHGWLYDLSTGNIVDLNVTQGPHPFVDDRVPRA | soluble
MSSHTATKYDVFLSFRGHDTRHNFISFLYKELVRRSIRTFKDDKELENGQRFSPELKSPIEVSRFAVVVVSENYAASSWCLDELVTIMDFEKKGSITVMPIFYGVEPNHVRWQTGVLAEQFKKHASREDPEKVLKWRQALTNFAQLSGDCSGDDDSKLVDKIANEISNKKTIYATI | soluble
IRSFATHAQLPISIVNREDDAFLNPNFRFIDHSIIGKNVPVADQSFRVGCSCASDEECMYSTCQCLDEMAPDSDEEADPYTRKKRFAYYSQGAKKGLLRDRVLQSQEPIYECHQGCACSKDCPNRVVERGRTVPLQIFRTKDRGWGVKCPVNIKRGQFVDRYLGEIITSEEADRRRAESTIARRKDVYLFALDKFSDPDSLDPLLAGQPLEVDGEYMSGPTRFINHSCDPNMAIFARVGDHADKHIHDLALFAIKDIPKGTELTFDYVNGLTGLESDAHDPSKISEMTKCLCGTAKCRGYLW | soluble
MTVGLGMPQPPAPTLAPRRATRQLMVGNVGVGSDHPVSVQSMCTTKTHDVNSTLQQIAELTAAGCDIVRVACPRQEDADALAEIARHSQIPVVADIHFQPRYIFAAIDAGCAAVRVNPGNIKEFDGRVGEVAKAAGAAGIPIRIGVNAGSLDKRFMEKYGKATPEALVESALWEASLFEEHGFGDIKISVKHNDPVVMVAAYELLAARCDYPLHLGVTEAGPAFQGTIKSAVAFGALLSRGIGDTIRVSLSAPPVEEVKVGNQVLESLNLRPRSLEIVSCPSCGRAQVDVYTLANEVTAGLDGLDVPLRVAVMGCVVNGPGEAREADLGVASGNGKGQIFVRGEVIKTVPEAQIVETLIEEAMRLAAEMGEQDPGATPSGSPIVTVS | soluble
MGIPILKLGECLLISIQSELDDHTAVEFQEDLLAKIHETSARGVVIDITSIDFIDSFIAKILGDVVSMSKLMGAKVVVTGIQPAVAITLIELGITFSGVLSAMDLESGLEKLKQELGE | not soluble
MGLTAGIVGLPNVGKSTLFNAITQAGAESANYPFCTIDPNVGIVEVPDERLNKLTELVEPKKTVPTVFEFTDIAGIVKGASKGEGLGNKFLSHIRQVDAICQVVRCFEDENITHVSGKVDPIDDIETINLELILADLESVDKRIERVAKLARQKDKEAVYEHEILVRLKEAFEEGKPARTVEFTEEQMKIVKGLHLLTTKEMLYVANVSEDDVIDPSENKYVQMVKEFAANENSQVIVVCAKIESEIAELDEEEKKVFLEELGIEESGLDQLIRAAYDLLGLATYFTAGVQEVRAWTFKQGMKAPQCAGVIHTDFERGFIRAETVSYEDLMTNGSMTAAKEAGKVRLEGKEYIVKDGDVMHFRFNV | soluble
HVHVVSNEILGLTNLLKDKKIKSKVIQFEVQFPTEEVAAHLSIDQKTPVYYVVRLRIVEGEPYVLEKTYMPTHLIPGINDDVLHDSIYNHITNVLQLKIAGTHRKIRACKSDHIDQQHLGCKQDDPILEVEHVGFLDTGIPFEYSFSRHRHDKFVVTSVNIRR | not soluble
MKTCYYELLGVETHASDLELKKAYRKKALQYHPDKNPDNVEEATQKFAVIRAAYEVLSDPQERAWYDSHKEQILNDTPPSTDDYYDYEVDATVTGVTTDELLLFFNSALYTKIDNSAAGIYQIAGKIFAKLAKDEILSGKRLGKFSEYQDDVFEQDINSIGYLKACDNFINKTDKLLYPLFGYSPTDYEYLKHFYKTWSAFNTLKSFSWKDEYMYSKNYDRRTKREVNRRNEKARQQARNEYNKTVKRFVVFIKKLDKRMKEGAKIAEEQRKLKEQQRKNELNNRRKFGNDNNDEEKFHLQSWQTVKEENWDELEKVYDNFGEFENSKNDKEGEVLIYECFICNKTFKSEKQLKNHINTKLHKKNMEEIRKEMEEENITLGLDNLSDLEKFDSADESVKEKEDIDLQALQAELAEIERKLAESSSEDESEDDNLNIEMDIEVEDVSSDENVHVNTKNKKKRKKKKKAKVDTETEESESFDDTKDKRSNELDDLLASLGDKGLQTDDDEDWSTKAKKKKGKQPKKNSKSTKSTPSLSTLPSSMSPTSAIEVCTTCGESFDSRNKLFNHVKIAGHAAVKNVVKRKKVKTKRI | not soluble
MTKTMIRLASEQDAEKLQQLMHEAFTPLRELGIDWPSVNANLDAVKENIDKNTTFVMTIDDEIISTITVRYPWGSVKSISGYPFVWWFATNPEYEGKGYGSQLLTYVEEAFLRDTLKSAAVTLGTSARLHPWLLKIYEKRGYEIYSEHENDDGDLGVIMRKVLIPERFDETILGQPPF | not soluble
MSPLNLHTDTTPSLLTFSDVKSFEKIYTMYWARVYATCYNTIKEREVAKEMVQDIFKSLWERKDELEIKTSVEHYLVRAAKFKVFEYIRNKTNQKKHTACALEDYCSATNCTEDAILYSNLTEKVGVLVDRLPCQCRNVYTLSRTEGLTNKEIATRLLISERAVEQHITKALRFLRENLQEYRS | not soluble
MAGDPMTIYEQHFIFSDRIVPIRVRENKYARRLILRIDARGREICVTTPPAINLYSIQGFIAKHQSWIEARLARVQIAHANSYLKEGTKIPLLGIPHTIQRKEGRGITEIVAGDVRQEPKIVVYGQLEYLPRRIADVLKKQAALIITPLVKCYARKVERKVKSICYKDTKSRWGSCSIHGNLSFSWRLVMAPQEVIEYVVAHEVAHLIEMNHGPKFWALCEKLCPKSEAYRTWLKENGHMLQAVNFHSYRLEILEHHHHHH | soluble
MPSVPRVDRLKPIYTAAKALNFGWRFSDFLKIPAYNGISRYTNQLHRITVRFCKQSESSVGVRNFIENQLVEIGRKNPSVVIYAQPVRNSNPSIRAEYGNGRTLQINAKNMTQDEVSKDVHLLFSRSGEPVVKLESRQSALVPSIQGQWTPITWLPTEMNTEQLPAKQFSKHKSTATSATEYILQNPPK | not soluble
MKTKNKILHANCLQLGGKGLLIIGPSGSGKSTLTLSLLDRAGWSKREAKLISDDYTMLRVENGKLQGSTPEGLQGGIEIRGVGLYTIEFEKQTTIDCVILLGPEYERFSTNQTFKFADLHIPLLKLPSLHEADCTAICQAIEAFFFRKVWLKSV | not soluble
MPMLSEEEGGAKIVLEGPKELLDRIVEALKEVYDPEIPVNVYDLGLIYEVRVEGPREKPRIKVKMSLTAIGCPVSVALPAYVEDAIREAVPEAEDVEVEVVFDPPWTPERVTPEGRELLKTIYGYDVVEQWKRAAQQQYGG | soluble
MAHHHHHHMAASSPLGMANYVTGDPLGVAGQEAGKGAGALLAAVQQCSAELSHEFGDGVALMTGEPAAATTSSHASPLSPEQRVALSAGAVTCLSVASLPGTTDTAVAVVGTTVGTVALLLIEGSRAVYKVAECSLMEWSSGAITAQDAIVDVAFSMDPAGRPEFVGAASAGCVVVVDVQLLYRPSGNSSRSTDEEVGDTATDAPAAVVHRAEWHQATELWSNSALRAKAVEALERSSAQLVRHCCSDVFACSFVEADVVRILAPQRLQAAVAIDVALVVVLSSGALHYVERVVEGGSVRLLAEHHWQRLAKGAAFTSHASAATQGADSAAENDFSADGTSVHLVTDSRAVPHVIYRYRLSPYHVQACQDGGQTASGGGGNYSMAALALPCATESVTHVCDAHLHFSEKDAACHVVLAGTQRVPVGKVGYMSVASRVGSLGHAQQQQHAGVAGCRTLAWWAVVQNAVLPRQTFDRSALERQALQHQHQQQQQQLHDGHAFPPFRTNAGSPPFTVHVQSNTMALPCGLGTCPASALTSPATSSPATAGAGVASGVSAVGPGQGSGFAAAFMLTDILVLASGHELYVGDLRDVPRSAKTLPVPRPLRSFGSVVEGITAGPYMDARAVLVATGSRVAPVSLV | not soluble
